This is an account of results in patent US20190135932A1 (Pfizer, published 2019).

Values joined by “and” are separate entries in the source; they are usually repeats but may differ in a detail not shown here. Equal values may be shown once.

Experiment [1] concerns the target T1, cynomolgus OX40R on activated cynomolgus monkey T cells / PBMCs (cynomolgus monkey).
T1 construct: whole, on cells; also called monkey cells; cynomolgus PBMC's stimulated with anti-CD3 and anti-CD28
In words: FACS saturation binding on anti-CD3 and anti-CD28 stimulated cynomolgus PBMCs, average over 14 individual monkeys. The protocol: (§1) OX40R-expressing cell lines (see below) or activated primary peripheral blood mononuclear cells (see below) were used to assess binding on both the human and cynomolgus OX40 receptors. Cells were harvested and washed (5×10⁵/tube) using wash buffer at RT°. The wash buffer consisted of PBS, 2% heat-inactivated fetal bovine serum (Hyclone, Logan, Utah) and 0.02% sodium azide (Sigma, St. Louis, Mo.). Next, 100 μl of various concentrations of antibody was added to the cells (starting at 30 ug/ml and using a 3-fold titration) diluted in wash buffer containing 0.005 mg/ml of cytocholasin B (Sigma, St. Louis, Mo.). The cells were gently rocked at RT° for 3 hours. Next, the cells were washed twice and resuspended in 0.5 ml/tube with cold wash buffer and 10,000 events were collected and analyzed using a Becton Dickinson FACSCalibur and CellQuest software (San Jose, Calif.).
Cynomolgus whole blood was obtained using heparinized vacutainer tubes (BD; Franklin Lakes, N.J.) and was diluted 1:4 in PBS. Diluted whole blood was mixed and 15 mls was carefully layered over an equal volume of Histopaque 1077 (Sigma, St Louis, Mo.). […] After a PBS wash, the PBMCs were counted and readjusted to 1×10⁶/ml in tissue culture medium (TCM). […]

Experiment [2] has as its target T2, human OX40R on activated primary human T cells (human, UniProt P43489 29-277).
T2 sequence (looked up): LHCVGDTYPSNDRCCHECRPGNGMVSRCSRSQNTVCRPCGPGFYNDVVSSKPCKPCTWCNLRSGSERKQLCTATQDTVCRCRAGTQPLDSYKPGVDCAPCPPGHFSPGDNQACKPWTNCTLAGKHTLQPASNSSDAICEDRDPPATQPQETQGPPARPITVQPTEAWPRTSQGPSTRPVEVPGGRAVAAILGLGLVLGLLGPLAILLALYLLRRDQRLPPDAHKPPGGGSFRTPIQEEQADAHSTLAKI
In words: cell-based or functional assay.

Experiment [3] concerns the target T2, human OX40R on activated primary human …. In words: FACS saturation binding on CD3/CD28 stimulated human T cells (N = 4). The protocol:
as §1
Human whole blood was collected into heparinized syringes (Baxter; Deerfield, Ill.) and then immediately transferred to Sigma Accuspin tubes (Sigma, St. Louis, Mo.) for the isolation of peripheral blood mononuclear cells (PBMC) as described by the manufacturer. The PBMC were washed twice with DPBS and T lymphocytes were isolated using a T cell purification column as described by the manufacturer (R & D Systems, Minneapolis, Minn.). […]

Experiment [4] addresses T3, Biotinylated CD134-muIg (Ancell 513-030) (UniProt P43489 29-214, biotinylated).
T3 construct: extracellular domain; Captured on streptavidin on a CM5 chip; also called OX40R extracellular domain fusion protein (Biacore ligand); not shown: murine Ig part (muIg) of the bought fusion
T3 sequence (looked up): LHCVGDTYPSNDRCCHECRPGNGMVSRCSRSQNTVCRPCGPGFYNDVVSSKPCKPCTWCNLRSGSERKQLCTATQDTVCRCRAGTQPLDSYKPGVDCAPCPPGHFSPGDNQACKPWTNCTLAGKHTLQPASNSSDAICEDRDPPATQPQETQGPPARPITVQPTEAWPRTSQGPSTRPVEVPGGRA
In words: Biacore (SPR), biotinylated CD134-muIg captured on streptavidin, antibody in solution. The protocol:
Biotinylated CD134-muIg (Ancell 513-030), at a concentration of 10 μg/ml at a flow rate of 5 μl/min was manually injected over Flow cells-2, 3 and 4 to achieve 3 surface densities: Fc-2=150RU, Fc-3=375RU and Fc-4=580RU. The different density surfaces were prepared to monitor the possibility of mass transport limited binding during association phase and rebinding during dissociation, both artifacts that are influenced by surface density that must be avoided.
(SPR reads the build-up and loss of mass on a sensor chip optically.)

B1: human monoclonal antibody 11D4 (antibody, V domains shown)
VH: EVQLVESGGGLVQPGGSLRLSCAASGFTFSSYSMNWVRQAPGKGLEWVSYISSSSSTIDYADSVKGRFTISRDNAKNSLYLQMNSLRDEDTAVYYCARESGWYLFDYWGQGTLVTVSS
VL: DIQMTQSPSSLSASVGDRVTITCRASQGISSWLAWYQQKPEKAPKSLIYAASSLQSGVPSRFSGSGSGTDFTLTISSLQPEDFATYYCQQYNSYPPTFGGGTKVEIKR
notes: IgG2 heavy chain, kappa light chain; allotypes G2(n-) and Km3; Alexa Fluor 647 conjugate was used in the species cross-reactivity FACS
As a reminder, the EC50 is the midpoint of the concentration-response curve. Take B1: the EC50 in experiment [1] was found to be 0.354 µg/mL.

B2: human monoclonal antibody 18D8 (antibody, human IgG2, kappa, V domains shown)
VH: EVQLVESGGGLVQPGRSLRLSCAASGFTFDDYAMHWVRQAPGKGLEWVSGISWNSGSIGYADSVKGRFTISRDNAKNSLYLQMNSLRAEDTALYYCAKDQSTADYYFYYGMDVWGQGTTVTVSS
VL: EIVVTQSPATLSLSPGERATLSCRASQSVSSYLAWYQQKPGQAPRLLIYDASNRATGIPARFSGSGSGTDFTLTISSLEPEDFAVYYCQQRSNWPTFGQGTKVEIKR
For orientation: Kd means the concentration at which binding is half-saturated. The term koff denotes a measure of how fast the partners let go of each other. As for B2, in experiment [2], the “EC50 of anti-CD3 induced IL-2 production by primary human T cells, donor four” value was found to be 0.024 µg/mL; the “EC50 of anti-CD3 induced IL-2 production by primary human T cells, donor one” value turned out to be 0.024 µg/mL; the “EC50 of anti-CD3 induced IL-2 production by primary human T cells, donor three” value turned out to be 0.013 µg/mL; the “EC50 of anti-CD3 induced IL-2 production by primary human T cells, donor two” value was determined as 0.135 µg/mL. For the same molecule, in experiment [3], the concentration for a half-maximal effect (EC50) was 1.06 µg/mL and 7.3 nM. Moreover, in experiment [4], the Kd is 0.49 µg/mL and 3.38 nM; the koff worked out at 0.00029 s⁻¹.
